Test results as given in patent publication US20110152341.

T1: APP-derived peptide substrate sw D597isoD, H-GLTNIKTEEISEVNLi…-NH2
T1 chain: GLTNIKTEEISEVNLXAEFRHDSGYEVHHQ

T2: APP-derived peptide substrate D597isoD, H-GLTNIKTEEISEVKMi…-NH2
T2 chain: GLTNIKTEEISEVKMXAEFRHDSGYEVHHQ

T3: APP-derived peptide substrate sw E599Q, H-GLTNIKTEEISEVNLDAQFRHDSGYEVHHQ-NH2
T3 chain: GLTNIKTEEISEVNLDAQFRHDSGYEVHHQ

T4: APP-derived peptide substrate E599Q, H-GLTNIKTEEISEVKMDAQFRHDSGYEVHHQ-NH2
T4 chain: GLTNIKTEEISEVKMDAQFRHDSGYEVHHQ

T5: APP-derived peptide substrate wildtyp (wt), H-GLTNIKTEEISEVKMDAEFRHDSGYEVHHQ-NH2
T5 chain: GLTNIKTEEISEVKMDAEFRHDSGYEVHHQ

T6: APP-derived peptide substrate swedish (sw), H-GLTNIKTEEISEVNLDAEFRHDSGYEVHHQ-NH2
T6 chain: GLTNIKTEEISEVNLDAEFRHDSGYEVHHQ


Legend:
[1] = target: T1, APP-derived peptide substrate sw …
[2] = target: T2, APP-derived peptide substrate D597isoD, …
[3] = target: T3, APP-derived peptide substrate sw E599Q, …
[4] = target: T4, APP-derived peptide substrate E599Q, …
[5] = target: T5, APP-derived peptide substrate wildtyp …
[6] = target: T6, APP-derived peptide substrate swedish …
[7] = target: Human APP with swedish mutation K595N, M596L overexpressed in HEK293 cells (pcDNA-hAPPsw)
[8] = target: Human APP wildtyp transiently overexpressed in HEK293 cells (pcDNA-hAPP)
[9] = target: Human APP with mutation E599Q overexpressed in HEK293 cells (pcDNA-hAPP/E3Q)
Human APP with mutation E599Q overexpressed in HEK293 cells (pcDNA-hAPP/E3Q), sequence (chain, as listed by the source E599Q): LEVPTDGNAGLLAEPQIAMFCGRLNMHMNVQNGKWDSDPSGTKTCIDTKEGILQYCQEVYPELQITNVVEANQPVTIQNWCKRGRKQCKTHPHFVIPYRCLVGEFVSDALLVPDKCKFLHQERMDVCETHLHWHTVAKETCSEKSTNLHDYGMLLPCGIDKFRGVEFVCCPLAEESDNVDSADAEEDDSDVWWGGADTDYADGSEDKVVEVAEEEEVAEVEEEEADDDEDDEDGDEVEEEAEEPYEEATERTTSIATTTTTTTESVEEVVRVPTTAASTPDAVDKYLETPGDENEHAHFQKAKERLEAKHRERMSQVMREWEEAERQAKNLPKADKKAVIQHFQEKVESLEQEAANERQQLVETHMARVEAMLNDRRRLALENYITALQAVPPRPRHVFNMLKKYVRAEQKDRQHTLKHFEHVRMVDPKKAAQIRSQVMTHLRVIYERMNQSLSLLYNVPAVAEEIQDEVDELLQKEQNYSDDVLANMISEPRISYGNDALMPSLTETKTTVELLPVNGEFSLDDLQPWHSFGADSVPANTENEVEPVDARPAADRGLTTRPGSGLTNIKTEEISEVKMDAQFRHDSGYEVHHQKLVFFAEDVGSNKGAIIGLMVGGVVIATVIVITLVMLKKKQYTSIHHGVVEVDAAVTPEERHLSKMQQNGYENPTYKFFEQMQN

Row | Protein | peptide cleavage, fragments by MALDI-TOF mass spectrometry (numbering according to substrate 1-30) [1] | peptide cleavage, fragments by MALDI-TOF mass spectrometry (numbering according to substrate 1-30) [2] | peptide cleavage, fragments by MALDI-TOF mass spectrometry (numbering according to substrate 1-30) [3] | peptide cleavage, fragments by MALDI-TOF mass spectrometry (numbering according to substrate 1-30) [4] | peptide cleavage, fragments by MALDI-TOF mass spectrometry (numbering according to substrate 1-30) [5] | peptide cleavage, fragments by MALDI-TOF mass spectrometry (numbering according to substrate 1-30) [6] | secreted Aβ estimated with antibody 6E10 (ELISA) [7] | amount of secreted Aβ (ELISA from IBL, non specific for the Aβ N-terminus) [8] | generated Aβ species by urea western-blot after immuno-precipitation [8] | secreted Aβ estimated with antibody 6E10 (ELISA) [8] | secretion of Aβ (ELISA, IBL kit with antibody 6E10), with and without 20 µM actinonin [8] | amount of secreted Aβ (ELISA from IBL, non specific for the Aβ N-terminus) [9] | secreted Aβ estimated with antibody 6E10 (ELISA) [9]
1 | Recombinant human meprin β (R&D systems) (protein) TPENFDVDGGMDQDIFDINEGLGLDLFEGDIRLDRAQIRNSIIGEKYRWPHTIPYVLEDSLEMNAKGVILNAFERYRLKTCIDFKPWAGETNYISVFKGSGCWSSVGNRRVGKQELSIGANCDRIATVQHEFLHALGFWHEQSRSDRDDYVRIMWDRILSGREHNFNTYSDDISDSLNVPYDYTSVMHYSKTAFQNGTEPTIVTRISDFEDVIGQRMDFSDSDLLKLNQLYNCSSSLSFMDSCSFELENVCGMIQSSGDNADWQRVSQVPRGPESDHSNMGQCQGSGFFMHFDSSSVNVGATAVLESRTLYPKRGFQCLQFYLYNSGSESDQLNIYIREYSADNVDGNLTLVEEIKEIPTGSWQLYHVTLKVTKKFRVVFEGRKGSGASLGGLSIDDINLSETRCPHHIWHIRNFTQFIGSPNGTLYSPPFYSSKGYAFQIYLNLAHVTNAGIYFHLISGANDDQLQWPCPWQQATMTLLDQNPDIRQRMSNQRSITTDPFMTTDNGNYFWDRPSKVGTVALFSNGTQFRRGGGYGTSAFITHERLKSRDFIKGDDVYILLTVEDISHLNSTQIQLTPAPSVQDLCSKTTCKNDGVCTVRDGKAECRCQSGEDWWYMGERCEKRGSTRDT | The fragment 12-30 were identified. | The fragments 1-15, 1-16, 17-30 and 16-30 were identified. | The fragments 16-30, 1-15, 9-21 and 9-20 were identified. | The fragments 8-30, 9-30, 1-22, 1-21, 12-30 17-30 18-30 9-21 were identified. | The fragments 1-16, 1-15, 17-30, and 18-30 were identified. | The fragments 16-30, 17-30 1-15 and 18-30 were identified. |  |  |  |  |  |  | 
2 | Human meprin β transiently overexpressed in HEK293 cells (pcDNA-hMPβ) (protein) NSIIGEKYRWPHTIPYVLEDSLEMNAKGVILNAFERYRLKTCIDFKPWAGETNYISVFKGSGCWSSVGNRRVGKQELSIGANCDRIATVQHEFLHALGFWHEQSRSDRDDYVRIMWDRILSGREHNFNTYSDDISDSLNVPYDYTSVMHYSKTAFQNGTEPTIVTRISDFEDVIGQRMDFSDSDLLKLNQLYNCSSSLSFMDSCSFELENVCGMIQSSGDNADWQRVSQVPRGPESDHSNMGQCQGSGFFMHFDSSSVNVGATAVLESRTLYPKRGFQCLQFYLYNSGSESDQLNIYIREYSADNVDGNLTLVEEIKEIPTGSWQLYHVTLKVTKKFRVVFEGRKGSGASLGGLSIDDINLSETRCPHHIWHIRNFTQFIGSPNGTLYSPPFYSSKGYAFQIYLNLAHVTNAGIYFHLISGANDDQLQWPCPWQQATMTLLDQNPDIRQRMSNQRSITTDPFMTTDNGNYFWDRPSKVGTVALFSNGTQFRRGGGYGTSAFITHERLKSRDFIKGDDVYILLTVEDISHLNSTQIQLTPAPSVQDLCSKTTCKNDGVCTVRDGKAECRCQSGEDWWYMGERCEKRGSTRDTIVIAVSSTVAVFALMLIITLVSVYCTRKKYRERMSSNRPNLTPQNQHAF |  |  |  |  |  |  | Secretion of Aβ is significantly increased after transfection with pcDNA-hMPβ and pcDNA-hAPP wildtyp, swedish and E3Q. | significantly increased for APPwt and APP/E3Q | revealed the formation of an additional Aβ species after co-transfection with hAPP and human meprin β compared to transfection with hAPP. This additional Aβ species co-migrates with Aβ3-40. | Secretion of Aβ is significantly increased after transfection with pcDNA-hMPβ and pcDNA-hAPP wildtyp, swedish and E3Q. | Secretion of Aβ is significantly increased in HEK293 after transient overexpression of hAPP and hMPβ (see FIG. 26). This increase is reduced to almost the basal level by the addition of 20 µM actinonin. | significantly increased for APPwt and APP/E3Q | Secretion of Aβ is significantly increased after transfection with pcDNA-hMPβ and pcDNA-hAPP wildtyp, swedish and E3Q.
3 | Recombinant human meprin α (R&D systems) (protein) VPIKYLPEENVHDADFGEQKDISEINLAAGLDLFQGDILLQKSRNGLRDPNTRWTFPIPYILADNLGLNAKGAILYAFEMFRLKSCVDFKPYEGESSYIIFQQFDGCWSEVGDQHVGQNISIGQGCAYKAIIEHEILHALGFYHEQSRTDRDDYVNIWWDQILSGYQHNFDTYDDSLITDLNTPYDYESLMHYQPFSFNKNASVPTITAKIPEFNSIIGQRLDFSAIDLERLNRMYNCTTTHTLLDHCTFEKANICGMIQGTRDDTDWAHQDSAQAGEVDHTLLGQCTGAGYFMQFSTSSGSAEEAALLESRILYPKRKQQCLQFFYKMTGSPSDRLVVWVRRDDSTGNVRKLVKVQTFQGDDDHNWKIAHVVLKEEQKFRYLFQGTKGDPQNSTGGIYLDDITLTETPCPTGVWTVRNFSQVLENTSKGDKLQSPRFYNSEGYGFGVTLYPNSRESSGYLRLAFHVCSGENDAILEWPVENRQVIITILDQEPDVRNRMSSSMVFTTSKSHTSPAINDTVIWDRPSRVGTYHTDCNCFRSIDLGWSGFISHQMLKRRSFLKNDDLIIFVDFEDITHLSQTEVPTKGKRLSPQGLILQGQEQQVSEEGSGKAMLEEALPVSLSQGQPSRQKRSVENTGPLEDHNWPQYFRDPCDPNPCQNDGICVNVKGMASCRCISGHAFFYTGERCQAV | The fragments 5-30 and 7-30 were identified. | The fragments 5-30, 7-30, 1-21, 1-15, 17-30 and 16-30 were identified. | The fragments 1-21, 7-30 and 5-30 were identified. | The fragments 5-30, 7-30, 5-21, 12-30 and 7-21 were identified. | The fragments 5-30, 7-30, 17-30 and 16-30 were identified. | The fragments 5-30, 7-30 and 16-30 were identified. |  |  |  |  |  |  | 
